Reference: PMC7919418 (Genes & Development, 2021)

B1: Panx[263–541], recombinant, coexpressed in SFiNX[wild type] (domain or fragment)
chain: ASSQNESSKERKLRDTELDYVPVRPDEHFIRPIKFSNLIERRPPQVEFNTVNLSKADKRSLAVARAELVLEQIQQKANKEEPPEFHMVDTICKLPVNESFRNQDCFENPSPICNNMNVVYKFNSTPGTRIDLSKWGLETVPEATKRLLRLLGIDVARLKELQSTVKPSQRILKLKKEQLEQGLAPTEEQETATLYKNAATQTERRTATRDAGTQVRLESKLNGAFWQNPHFDPMNLTQHQSNVMLALQEIYQTLPSATMAVKLSRALAPALAIIKGRQP
B2: Nxf2[541–841], recombinant (domain or fragment)
chain: LPSEYVRAVKEVFPQLTTLDGVDLQTNPGQSLQKNFLCDTGAYELVGAFLENYLREFENDEFRHNLYKYYSENSIFTLTCNYNVVQNHQTPKILQRLSKYNRHARNLRNKDYSKASDGVFFGCTYIVEILLQLPRVTHDFHSLQTDVMHYNGKGAVIYVAGLLRDEPPSTRNGHGSKTDIGGVLLGFSRQFVVTFDEANLGLGKRARRLKIANERLHITNPSKTAIRNAFSVNFPDPSERQAEEDSLDVKDHKLLLFQEVTGLISTWVTSIVEEADWDFERALKLFIQKNADHEIPDLAFA
B3: His6-Ctp, recombinant, coexpressed in SFiNX complexes (natural protein)
chain: MSDRKAVIKNADMSEEMQQDAVDCATQALEKYNIEKDIAAYIKKEFDKKYNPTWHCIVGRNFGSYVTHETRHFIYFYLGQVAILLFKSG

Legend:
[1] = target: Ctp expressed in isolation with a His6-SUMO tag (for ITC) (Drosophila melanogaster, UniProt Q24117 1-89); assay: ITC
[2] = target: Drosophila melanogaster Ctp (residues 1–89), untagged, coexpressed with Panx peptides (Drosophila melanogaster, UniProt Q24117 1-89); assay: SEC-MALS
[3] = target: B2; assay: SEC-MALS
[4] = target: Nxt1, recombinant (Drosophila melanogaster, UniProt Q9V3H8 1-133); assay: SEC-MALS
[5] = target: the molecule itself; assay: SEC-MALS

| Binder | Kd [1] [nM] | stoichiometry N [2] | further results |
| --- | --- | --- | --- |
| TLYKNAATQTER [Panx peptide residues 455–466 (Panx1)] | ~75 | 2 Panx peptides per Ctp homodimer |  |
| RTATRDAGTQVRLE [Panx peptide residues 467–480 (Panx2)] | ~140 | 2 Panx peptides per Ctp homodimer |  |
| TLYKNAATQTERRTATRDAGTQVRLE [Panx peptide residues 455–480 (Panx1 + 2)] |  | 1 Panx peptide per Ctp homodimer |  |
| B1 |  |  | binding result [3]: binds |
| B2 |  |  | binding result [4]: binds |
| B3 |  |  | stoichiometry N [5]: 2 |
